The source of these data is patent publication US20230151068A1 (FRED HUTCHINSON CANCER CENTER, published 2023).

The target in the assay is T1, TfR (Biotinylated; site and any biotin-acceptor or purification tag are not stated in the passages seen.).
T1 construct: also called biotinylated TfR ectodomain; control protein
Briefly: flow cytometry, 293F cells displaying YAP (SDGF), co-incubated with biotinylated TfR ectodomain (control protein) and streptavidin-Alexa647. In general terms: Flow cytometry measures light scatter and fluorescence of single cells or particles in a stream.

T1 sequence (chain, as listed by the source limits assumed): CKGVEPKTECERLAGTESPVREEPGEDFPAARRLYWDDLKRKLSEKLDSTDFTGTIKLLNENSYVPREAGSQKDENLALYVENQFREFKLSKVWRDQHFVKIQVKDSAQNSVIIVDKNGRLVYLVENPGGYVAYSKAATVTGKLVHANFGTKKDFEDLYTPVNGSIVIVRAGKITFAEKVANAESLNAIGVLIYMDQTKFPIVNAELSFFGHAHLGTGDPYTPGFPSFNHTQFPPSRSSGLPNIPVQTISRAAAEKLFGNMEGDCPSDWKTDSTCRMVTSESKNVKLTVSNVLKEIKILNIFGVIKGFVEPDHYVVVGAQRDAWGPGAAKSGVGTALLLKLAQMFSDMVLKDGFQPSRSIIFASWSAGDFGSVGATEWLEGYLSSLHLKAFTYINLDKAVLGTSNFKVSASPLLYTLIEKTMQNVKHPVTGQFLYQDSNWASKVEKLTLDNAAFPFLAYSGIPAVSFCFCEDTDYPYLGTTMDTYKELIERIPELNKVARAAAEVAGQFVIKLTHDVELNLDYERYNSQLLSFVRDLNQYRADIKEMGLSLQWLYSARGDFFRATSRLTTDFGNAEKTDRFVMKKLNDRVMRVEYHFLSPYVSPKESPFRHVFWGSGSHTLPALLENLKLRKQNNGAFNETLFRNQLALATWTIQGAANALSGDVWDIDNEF

B1: SDGF-YAP (50-171), surface-tethered on HEK-293 cells (other, UniProt P46937 50-171, looked up)
chain: AGHQIVHVRGDSETDLEALFNAVMNPKTANVPQTVPMRLRKLPDSFFKPPEPKSHSRQASTDAGTAGALTPQHVRAHSSPASLQLGAVSPGTLTPTGVVSGPAATPTAQHLRQSSFEIPDDV
Take B1: the binding result is reported as “no binding (tested: not shown on the sheet)”.
